The record followed here is patent US20260167721A1 (ABLEXIS, published 2026).

Experiment [1] addresses T1, CD3 on human donor PBMC / Pan T effector cells (human, UniProt P07766 23-207; P09693 23-182; P04234 22-171; P20963 22-164). As to the kind of experiment: cell-based or functional assay.
The target of experiment [2] is T1, CD3 on human donor PBMC / Pan T …. Description: cell-based or functional assay. The source holds these as a separate data set.

T1 sequence (P07766 23-207, chain 1 of 4): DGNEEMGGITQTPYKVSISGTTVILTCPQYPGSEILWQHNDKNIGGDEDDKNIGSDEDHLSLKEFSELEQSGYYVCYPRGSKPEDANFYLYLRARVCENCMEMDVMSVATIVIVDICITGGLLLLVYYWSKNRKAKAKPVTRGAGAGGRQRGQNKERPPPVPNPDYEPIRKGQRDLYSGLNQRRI
T1 sequence (P09693 23-182, chain 2 of 4): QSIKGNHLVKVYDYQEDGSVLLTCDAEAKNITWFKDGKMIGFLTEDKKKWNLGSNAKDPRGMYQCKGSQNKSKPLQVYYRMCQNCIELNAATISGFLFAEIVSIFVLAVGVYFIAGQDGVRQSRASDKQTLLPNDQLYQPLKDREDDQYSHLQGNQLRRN
T1 sequence (P04234 22-171, chain 3 of 4): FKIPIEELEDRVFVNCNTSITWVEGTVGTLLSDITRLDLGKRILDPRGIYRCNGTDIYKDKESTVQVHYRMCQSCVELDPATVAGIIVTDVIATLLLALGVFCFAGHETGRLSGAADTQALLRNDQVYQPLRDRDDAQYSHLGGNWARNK
T1 sequence (P20963 22-164, chain 4 of 4): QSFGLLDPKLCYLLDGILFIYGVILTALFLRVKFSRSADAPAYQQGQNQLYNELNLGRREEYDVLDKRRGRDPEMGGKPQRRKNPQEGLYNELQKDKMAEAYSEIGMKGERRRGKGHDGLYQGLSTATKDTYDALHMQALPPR

B1: CD3 × CD33-BspAb71 (bispecific antibody)
chain 1: EVQLVESGGGLVKPGGSLRLSCAASGFTFSSYSMNWVRQAPGKCLEWVSSISRSSSYIYYADSVKGRFTLSRDNAKNSLYLQMNSLRGEDTAIYYCGRDGKGAIFLDYWGQGTLVTVSSGGGGSGGGGSGGGGSGGGGSSYELTQPPSVSVSPGQTARITCSGDALPKKYAYWYQQKSGQAPVLVIYEDSKRPSGIPERFSGSSSGTMATLTISGAQVEDEADYYCYSTHSSGNHRVFGCGTKLTVLDKTHTCPPCPAPEFEGGPSVFLFPPKPKDTLMISRTPEVTCVVVDVSHEDPEVKFNWYVDGVEVHNAKTKPREEQYNSTYRVVSVLTVLHQDWLNGKEYKCKVSNKALPASIEKTISKAKGQPREPQVYTLPPCREEMTKNQVSLWCLVKGFYPSDIAVEWESNGQPENNYKTTPPVLDSDGSFFLYSKLTVDKSRWQQGNVFSCSVMHEALHNHYTQKSLSLSPGK
chain 2: EVQLVQSGAEVKKPGSSVKVSCKASGYTITDSNIHWVRQAPGQSLEWIGYIYPYNGGTDYNQKFKNRATLTVDNPTNTAYMELSSLRSEDTAFYYCVNGNPWLAYWGQGTLVTVSSASTKGPSVFPLAPSSKSTSGGTAALGCLVKDYFPEPVTVSWNSGALTSGVHTFPAVLQSSGLYSLSSVVTVPSSSLGTQTYICNVNHKPSNTKVDKRVEPKSCDKTHTCPPCPAPEFEGGPSVFLFPPKPKDTLMISRTPEVTCVVVDVSHEDPEVKFNWYVDGVEVHNAKTKPREEQYNSTYRVVSVLTVLHQDWLNGKEYKCKVSNKALPASIEKTISKAKGQPREPQVCTLPPSREEMTKNQVSLSCAVKGFYPSDIAVEWESNGQPENNYKTTPPVLDSDGSFFLVSKLTVDKSRWQQGNVFSCSVMHEALHNRFTQKSLSLSPGK
chain 3: DIQLTQSPSTLSASVGDRVTITCRASESLDNYGIRFLTWFQQKPGKAPKLLMYAASNQGSGVPSRFSGSGSGTEFTLTISSLQPDDFATYYCQQTKEVPWSFGQGTKVEVKRTVAAPSVFIFPPSDEQLKSGTASVVCLLNNFYPREAKVQWKVDNALQSGNSQESVTEQDSKDSTYSLSSTLTLSKADYEKHKVYACEVTHQGLSSPVTKSFNRGEC
Take B1: in experiment [1], the “Cytokine Release Assay (TNFα) Donor 0 gMFI max” value came out at 44100 gMFI, the “Cytokine Release Assay (TNFα) Donor 1 gMFI max” value stood at 5470 gMFI, the “Cytokine Release Assay (TNFα) Donor 2 EC50” value came to 396 pM and the “Cytokine Release Assay (TNFα) Donor 2 gMFI max” value is 16700 gMFI. Also, the “Cytokine Release Assay (TNFα) Donor 3 gMFI max” value in experiment [1] is 28200 gMFI. Besides, in experiment [2], the “Cytokine Release Assay (IL2) Donor 0 EC50” value came out at 3030 pM, the “Cytokine Release Assay (IL2) Donor 0 gMFI max” value came out at 65500 gMFI, the “Cytokine Release Assay (IL2) Donor 1 gMFI max” value turned out to be 24400 gMFI and the “Cytokine Release Assay (IL2) Donor 2 EC50” value is 72.5 pM. In experiment [2], the “Cytokine Release Assay (IL2) Donor 2 gMFI max” value is 30900 gMFI, the “Cytokine Release Assay (IL2) Donor 3 EC50” value amounted to 2160 pM and the “Cytokine Release Assay (IL2) Donor 3 gMFI max” value stood at 127000 gMFI.

B2: CD3 × CD33-BspAb38 (bispecific antibody)
chain 1: not shown
chain 2: EVQLVQSGAEVKKPGSSVKVSCKASGYTITDSNIHWVRQAPGQSLEWIGYIYPYNGGTDYNQKFKNRATLTVDNPTNTAYMELSSLRSEDTAFYYCVNGNPWLAYWGQGTLVTVSSASTKGPSVFPLAPSSKSTSGGTAALGCLVKDYFPEPVTVSWNSGALTSGVHTFPAVLQSSGLYSLSSVVTVPSSSLGTQTYICNVNHKPSNTKVDKRVEPKSCDKTHTCPPCPAPEFEGGPSVFLFPPKPKDTLMISRTPEVTCVVVDVSHEDPEVKFNWYVDGVEVHNAKTKPREEQYNSTYRVVSVLTVLHQDWLNGKEYKCKVSNKALPASIEKTISKAKGQPREPQVCTLPPSREEMTKNQVSLSCAVKGFYPSDIAVEWESNGQPENNYKTTPPVLDSDGSFFLVSKLTVDKSRWQQGNVFSCSVMHEALHNRFTQKSLSLSPGK
chain 3: DIQLTQSPSTLSASVGDRVTITCRASESLDNYGIRFLTWFQQKPGKAPKLLMYAASNQGSGVPSRFSGSGSGTEFTLTISSLQPDDFATYYCQQTKEVPWSFGQGTKVEVKRTVAAPSVFIFPPSDEQLKSGTASVVCLLNNFYPREAKVQWKVDNALQSGNSQESVTEQDSKDSTYSLSSTLTLSKADYEKHKVYACEVTHQGLSSPVTKSFNRGEC
For the molecule B2, in experiment [1], the “Cytokine Release Assay (TNFα) Donor 0 EC50” value was found to be 6010 pM, the “Cytokine Release Assay (TNFα) Donor 0 gMFI max” value is 28500 gMFI, the “Cytokine Release Assay (TNFα) Donor 1 gMFI max” value was found to be 4840 gMFI and the “Cytokine Release Assay (TNFα) Donor 2 EC50” value turned out to be 4030 pM. Moreover, in experiment [1], the “Cytokine Release Assay (TNFα) Donor 2 gMFI max” value was found to be 10100 gMFI, the “Cytokine Release Assay (TNFα) Donor 3 EC50” value was 5950 pM and the “Cytokine Release Assay (TNFα) Donor 3 gMFI max” value was determined as 17900 gMFI. For the same molecule, in experiment [2], the “Cytokine Release Assay (IL2) Donor 0 EC50” value was 6630 pM, the “Cytokine Release Assay (IL2) Donor 0 gMFI max” value was found to be 39300 gMFI, the “Cytokine Release Assay (IL2) Donor 1 EC50” value amounted to 2870 pM and the “Cytokine Release Assay (IL2) Donor 1 gMFI max” value was found to be 16200 gMFI. Also, in experiment [2], the “Cytokine Release Assay (IL2) Donor 2 EC50” value came out at 1730 pM, the “Cytokine Release Assay (IL2) Donor 2 gMFI max” value came to 19200 gMFI, the “Cytokine Release Assay (IL2) Donor 3 EC50” value is 1840 pM and the “Cytokine Release Assay (IL2) Donor 3 gMFI max” value is 45900 gMFI.

B3: CD3 × CD33-BspAb37 (bispecific antibody)
chain 1: not shown
chain 2: EVQLVQSGAEVKKPGSSVKVSCKASGYTITDSNIHWVRQAPGQSLEWIGYIYPYNGGTDYNQKFKNRATLTVDNPTNTAYMELSSLRSEDTAFYYCVNGNPWLAYWGQGTLVTVSSASTKGPSVFPLAPSSKSTSGGTAALGCLVKDYFPEPVTVSWNSGALTSGVHTFPAVLQSSGLYSLSSVVTVPSSSLGTQTYICNVNHKPSNTKVDKRVEPKSCDKTHTCPPCPAPEFEGGPSVFLFPPKPKDTLMISRTPEVTCVVVDVSHEDPEVKFNWYVDGVEVHNAKTKPREEQYNSTYRVVSVLTVLHQDWLNGKEYKCKVSNKALPASIEKTISKAKGQPREPQVCTLPPSREEMTKNQVSLSCAVKGFYPSDIAVEWESNGQPENNYKTTPPVLDSDGSFFLVSKLTVDKSRWQQGNVFSCSVMHEALHNRFTQKSLSLSPGK
chain 3: DIQLTQSPSTLSASVGDRVTITCRASESLDNYGIRFLTWFQQKPGKAPKLLMYAASNQGSGVPSRFSGSGSGTEFTLTISSLQPDDFATYYCQQTKEVPWSFGQGTKVEVKRTVAAPSVFIFPPSDEQLKSGTASVVCLLNNFYPREAKVQWKVDNALQSGNSQESVTEQDSKDSTYSLSSTLTLSKADYEKHKVYACEVTHQGLSSPVTKSFNRGEC
On to B3, for which, in experiment [1], the “Cytokine Release Assay (TNFα) Donor 0 EC50” value amounted to 164 pM, the “Cytokine Release Assay (TNFα) Donor 0 gMFI max” value came out at 48300 gMFI, the “Cytokine Release Assay (TNFα) Donor 1 gMFI max” value was 5610 gMFI and the “Cytokine Release Assay (TNFα) Donor 2 EC50” value came out at 83.2 pM. In experiment [1], the “Cytokine Release Assay (TNFα) Donor 2 gMFI max” value amounted to 15800 gMFI, the “Cytokine Release Assay (TNFα) Donor 3 EC50” value was found to be 222 pM and the “Cytokine Release Assay (TNFα) Donor 3 gMFI max” value was 31600 gMFI. Also, in experiment [2], the “Cytokine Release Assay (IL2) Donor 0 EC50” value stood at 180 pM, the “Cytokine Release Assay (IL2) Donor 0 gMFI max” value was determined as 69200 gMFI, the “Cytokine Release Assay (IL2) Donor 1 EC50” value turned out to be 437 pM and the “Cytokine Release Assay (IL2) Donor 1 gMFI max” value amounted to 26800 gMFI. Besides, in experiment [2], the “Cytokine Release Assay (IL2) Donor 2 EC50” value worked out at 141 pM, the “Cytokine Release Assay (IL2) Donor 2 gMFI max” value is 34800 gMFI, the “Cytokine Release Assay (IL2) Donor 3 EC50” value turned out to be 181 pM and the “Cytokine Release Assay (IL2) Donor 3 gMFI max” value was 104000 gMFI.

B4: CD3 × CD33-BspAb116 (bispecific antibody)
chain 1: NFMLTQPHSVSESPGKTVTISCTRSSGSIASNYVQWYQQRPGSSPTTVIYEDNQRPSGVPDRFSGSIDSSSNSASLTISGLKTEDEAYYYCQSFDSSNRVFGCGTKLTVLGGGGSGGGGSGGGGSGGGGSQVQLQESGPGLVKPSQTLSLTCTVSGGSISSGGYYWSWIRQHPGKCLEWIGYIYYSGSTYYNPSLKSRVTISVDTSKDQFSLKLSSVTAADTAVYYCARERKTSLPFDIWGQGTMVTVSSDKTHTCPPCPAPEFEGGPSVFLFPPKPKDTLMISRTPEVTCVVVDVSHEDPEVKFNWYVDGVEVHNAKTKPREEQYNSTYRVVSVLTVLHQDWLNGKEYKCKVSNKALPASIEKTISKAKGQPREPQVYTLPPCREEMTKNQVSLWCLVKGFYPSDIAVEWESNGQPENNYKTTPPVLDSDGSFFLYSKLTVDKSRWQQGNVFSCSVMHEALHNHYTQKSLSLSPGK
chain 2: EVQLVQSGAEVKKPGSSVKVSCKASGYTITDSNIHWVRQAPGQSLEWIGYIYPYNGGTDYNQKFKNRATLTVDNPTNTAYMELSSLRSEDTAFYYCVNGNPWLAYWGQGTLVTVSSASTKGPSVFPLAPSSKSTSGGTAALGCLVKDYFPEPVTVSWNSGALTSGVHTFPAVLQSSGLYSLSSVVTVPSSSLGTQTYICNVNHKPSNTKVDKRVEPKSCDKTHTCPPCPAPEFEGGPSVFLFPPKPKDTLMISRTPEVTCVVVDVSHEDPEVKFNWYVDGVEVHNAKTKPREEQYNSTYRVVSVLTVLHQDWLNGKEYKCKVSNKALPASIEKTISKAKGQPREPQVCTLPPSREEMTKNQVSLSCAVKGFYPSDIAVEWESNGQPENNYKTTPPVLDSDGSFFLVSKLTVDKSRWQQGNVFSCSVMHEALHNRFTQKSLSLSPGK
chain 3: DIQLTQSPSTLSASVGDRVTITCRASESLDNYGIRFLTWFQQKPGKAPKLLMYAASNQGSGVPSRFSGSGSGTEFTLTISSLQPDDFATYYCQQTKEVPWSFGQGTKVEVKRTVAAPSVFIFPPSDEQLKSGTASVVCLLNNFYPREAKVQWKVDNALQSGNSQESVTEQDSKDSTYSLSSTLTLSKADYEKHKVYACEVTHQGLSSPVTKSFNRGEC
For B4, in experiment [1], the “Cytokine Release Assay (TNFα) Donor 0 EC50” value stood at 610 pM, the “Cytokine Release Assay (TNFα) Donor 0 gMFI max” value amounted to 18000 gMFI, the “Cytokine Release Assay (TNFα) Donor 1 gMFI max” value was determined as 4930 gMFI and the “Cytokine Release Assay (TNFα) Donor 2 EC50” value was found to be 155 pM. Moreover, in experiment [1], the “Cytokine Release Assay (TNFα) Donor 2 gMFI max” value amounted to 9080 gMFI, the “Cytokine Release Assay (TNFα) Donor 3 EC50” value came out at 685 pM and the “Cytokine Release Assay (TNFα) Donor 3 gMFI max” value amounted to 13600 gMFI. Besides, in experiment [2], the “Cytokine Release Assay (IL2) Donor 0 EC50” value came out at 450 pM, the “Cytokine Release Assay (IL2) Donor 0 gMFI max” value came to 23200 gMFI, the “Cytokine Release Assay (IL2) Donor 1 EC50” value was 384 pM and the “Cytokine Release Assay (IL2) Donor 1 gMFI max” value is 19000 gMFI. Also, in experiment [2], the “Cytokine Release Assay (IL2) Donor 2 EC50” value is 90.9 pM, the “Cytokine Release Assay (IL2) Donor 2 gMFI max” value was determined as 16800 gMFI, the “Cytokine Release Assay (IL2) Donor 3 EC50” value came to 198 pM and the “Cytokine Release Assay (IL2) Donor 3 gMFI max” value is 27200 gMFI.
